doi:10.1101/2023.01.10.523494 (bioRxiv, 2023)

Assays:
[1] = target: SARS-CoV-2 RBD for crystallisation (SARS-CoV-2 (wildtype), UniProt P0DTC2); test: crystal structure
[2] = target: receptor binding domain (RBD) of the wildtype (WT) SARS-CoV-2 spike protein (SARS-CoV-2, wildtype (sequence as in …))

B1: mRBD2 Fab fragment (Fab, V domains shown)
VH: QVQLQQSGAELARPGASVKLSCKASGYTFISNGISWVKQRTGQGLEWIGEIYPRNGNTYYNEKFKGKATLTADKSSSTAYMELRSLTSEDSAVFFCARDYYYGSFDYWGQGTTLTVSS
VL: DIQMTQSPSSLSASLGERVSLTCRASREISGYLTWLQQKPDGTIKRLIYAASTLDSGVPKRFSGSRSGSDYSLTISSLESEDFADYYCLQYASYPWTFGGGTKLEIK
B1: binds [1].

B2: hRBD15 (antibody, V domains shown)
VH: QVQLVQSGAEVKKPGASVKVSCKASGYTFTSQYMHWVRQAPGQGLEWMGIINPSGGSTSYAQKFQGRVTMTSDTSTSTVYMELSSLRSEDTAVYYCARDIYFVPARGGFDPWGQGTLVTVSS
VL: EIVLTQSPGTLSLSPGERATLSCRASQSIISSYLAWYQQKPGQAPRLLIYGASSRATGIPDRFSGSGSGTDFTLTISRLEPEDFAVYYCQQSGSAPRYTFGQGTKLEIK
B2: binds [2].

B3: hRBD14 (antibody, V domains shown)
VH: EVQLVESGGGLVQPGGSLRLSCAASGFSFSSSDMHWVRQATGKGLEWVSGIGTSGDTYYLGSVKGRFTISRDDAKNSFYLQMNSLRAGDTAVYYCARGEMAATGLWYYFDYWGQGTLVTVSS
VL: not shown
B3: binds [2].
